Interaction score data for three molecules are collected here from article PMC10397247.

Test [1] deals with T1, 4H3354-bN.
T1 chain: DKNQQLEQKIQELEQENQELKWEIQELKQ
Briefly: two-hybrid library CCNG1.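 Also: natural log of median RNA to DNA barcode read ratio; higher means stronger binding.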

Test [2] has as its target T2, 4H338-bN.
T2 chain: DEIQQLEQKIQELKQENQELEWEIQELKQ
Briefly: two-hybrid library CCNG1.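 Also: natural log of median RNA to DNA barcode read ratio; higher means stronger binding.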

In test [3] the target is T3, 4H3427-bN.
T3 chain: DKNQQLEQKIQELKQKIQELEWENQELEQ
Briefly: two-hybrid library CCNG1.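 Also: natural log of median RNA to DNA barcode read ratio; higher means stronger binding.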

The target of test [4] is T4, 4H3782-bN.
T4 chain: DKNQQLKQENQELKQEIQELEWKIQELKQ
Briefly: two-hybrid library CCNG1.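 Also: natural log of median RNA to DNA barcode read ratio; higher means stronger binding.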

For test [5], the target named is T5, 4H3855-bN.
T5 chain: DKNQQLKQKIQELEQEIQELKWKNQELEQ
Briefly: two-hybrid library CCNG1.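 Also: natural log of median RNA to DNA barcode read ratio; higher means stronger binding.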

Test [6] addresses T6, 4H4001-bN.
T6 chain: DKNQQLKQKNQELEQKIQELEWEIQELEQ
Briefly: two-hybrid library CCNG1.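 Also: natural log of median RNA to DNA barcode read ratio; higher means stronger binding.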

Test [7] has as its target T7, 4H454-bN.
T7 chain: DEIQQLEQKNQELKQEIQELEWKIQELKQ
The experiment in a line: two-hybrid library CCNG1.

Test [8] has as its target T8, 4H568-bN.
T8 chain: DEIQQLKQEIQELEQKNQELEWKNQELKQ
The experiment in a line: two-hybrid library CCNG1.

The target of test [9] is T9, 4H607-bN.
T9 chain: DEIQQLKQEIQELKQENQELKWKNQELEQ
The experiment in a line: two-hybrid library CCNG1.

Test [10] concerns the target T10, 4H687-bN.
T10 chain: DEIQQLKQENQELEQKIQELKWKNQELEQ
Briefly: two-hybrid library CCNG1.

Test [11] addresses T11, 4H717-bN.
T11 chain: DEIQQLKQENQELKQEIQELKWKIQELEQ
Briefly: two-hybrid library CCNG1.

Test [12] concerns the target T12, 4H72-bN.
T12 chain: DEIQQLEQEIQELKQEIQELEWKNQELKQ
The experiment in a line: two-hybrid library CCNG1.

Test [13] addresses T13, 4H754-bN.
T13 chain: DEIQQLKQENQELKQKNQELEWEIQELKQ
Briefly: two-hybrid library CCNG1.

Test [14] deals with T14, 4H797-bN.
T14 chain: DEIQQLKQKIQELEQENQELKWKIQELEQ
The experiment in a line: two-hybrid library CCNG1.

The target in test [15] is T15, 4H883-bN.
T15 chain: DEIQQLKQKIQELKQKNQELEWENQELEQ
The experiment in a line: two-hybrid library CCNG1.

The target in test [16] is T16, 4H908-bN.
T16 chain: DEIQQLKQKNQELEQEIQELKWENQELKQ
Briefly: two-hybrid library CCNG1.

Test [17] has as its target T17, 4H918-bN.
T17 chain: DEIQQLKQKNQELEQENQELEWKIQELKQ
The experiment in a line: two-hybrid library CCNG1.

Test [18] deals with T18, 4H953-bN.
T18 chain: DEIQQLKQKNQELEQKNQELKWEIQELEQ
The experiment in a line: two-hybrid library CCNG1.

Test [19] addresses T19, 4H967-bN.
T19 chain: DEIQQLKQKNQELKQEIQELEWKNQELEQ
The experiment in a line: two-hybrid library CCNG1.

Test [20] deals with T20, O6.
T20 chain: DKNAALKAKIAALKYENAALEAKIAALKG
The experiment in a line: two-hybrid library CCNG1.

In test [21] the target is T21, O7.
T21 chain: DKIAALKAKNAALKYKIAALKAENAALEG
Briefly: two-hybrid library CCNG1.

Test [22] concerns the target T22, O8.
T22 chain: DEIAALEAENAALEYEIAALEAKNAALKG
Briefly: two-hybrid library CCNG1.

Test [23] addresses T23, O9.
T23 chain: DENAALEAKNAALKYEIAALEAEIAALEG
The experiment in a line: two-hybrid library CCNG1.

In test [24] the target is T24, 4H2935-AA.
T24 chain: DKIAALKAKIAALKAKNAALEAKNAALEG
The experiment in a line: two-hybrid library CCmax.

For test [25], the target named is T25, 4H327-AA.
T25 chain: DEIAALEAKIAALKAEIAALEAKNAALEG
The experiment in a line: two-hybrid library CCmax. Conditions: mean of both orientations.

Test [26] has as its target T26, 4H3605-AA.
T26 chain: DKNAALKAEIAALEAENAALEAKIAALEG
The experiment in a line: two-hybrid library CCmax. Conditions: mean of both orientations.

The target in test [27] is T27, 4H3625-AA.
T27 chain: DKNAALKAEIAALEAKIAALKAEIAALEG
The experiment in a line: two-hybrid library CCmax. As to conditions: mean of both orientations.

Test [28] concerns the target T28, 4H3664-AA.
T28 chain: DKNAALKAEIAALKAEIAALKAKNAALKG
Briefly: two-hybrid library CCmax. Conditions: mean of both orientations.

Test [29] has as its target T29, 4H369-AA.
T29 chain: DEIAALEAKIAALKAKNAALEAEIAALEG
Briefly: two-hybrid library CCmax. Conditions: mean of both orientations.

Test [30] has as its target T30, 4H3922-AA.
T30 chain: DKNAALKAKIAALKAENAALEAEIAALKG
Briefly: two-hybrid library CCmax. As to conditions: mean of both orientations.

In test [31] the target is T31, 4H4033-AA.
T31 chain: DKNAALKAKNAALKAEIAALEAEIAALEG
The experiment in a line: two-hybrid library CCmax. Conditions: mean of both orientations.

Test [32] has as its target T32, 4H481-AA.
T32 chain: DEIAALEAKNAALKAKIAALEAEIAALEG
Briefly: two-hybrid library CCmax. Conditions: mean of both orientations.

The target in test [33] is T33, 4H55-AA.
T33 chain: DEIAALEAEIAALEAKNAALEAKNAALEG
Briefly: two-hybrid library CCmax. As to conditions: mean of both orientations.

For test [34], the target named is T34, 4H662-AA.
T34 chain: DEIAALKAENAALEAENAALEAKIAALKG
The experiment in a line: two-hybrid library CCmax. As to conditions: mean of both orientations.

In the case of DKNQQLEQKIQELEQENQELKWEIQELKQ [4H3354-bN], the interaction score in [1] was 1.43; in test [2] it was -0.511; in [3] it was -0.405; in test [4] it was -1.06; in [5], -0.269; in test [6], -0.318. The interaction score in test [7] was -0.726; in test [8] it was -0.364; in test [9], -0.0582; in test [10], -1.25; in test [11] it was -0.894; in test [12], -1.09. The interaction score in [13] was -0.289; in test [14], -0.685; in test [15], -0.871; in test [16] it was -0.992; in test [17] it was -0.605; in [18], -0.946. The interaction score in test [19] was -1.24.

Turning to DKNAALKAKIAALKYENAALEAKIAALKG [O6], the interaction score was -2.52 in test [20], -2.14 in test [21], -1.47 in [22] and -0.62 in [23].

In the case of DKIAALKAKIAALKAKNAALEAKNAALEG [4H2935-AA], the interaction score in test [24] is -1.28; in test [25] it was -0.77; in test [26], -0.818; in test [27], -1.65; in test [28], -1.44; in [29], -1.13. Besides, the interaction score was -1.89 in test [30]; -1.05 in test [31]; -1.6 in test [32]; 1.48 in test [33]; -1.34 in test [34].
